In the supplement of paper PMC10567573:

B1: CRYL1 (parent)
chain: RNALENIRKEMKLLEQAGSLKGSL

Variants of: B1
Test: protein stability index of a GFP-peptide fusion (GPS, HEK-293T) (PSI 1-6); higher = more stable
Conditions: c terminus: a fixed tail appended
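Note: lentivirally expressed fusions sorted by FACS into six bins by GFP to DsRed ratio, PSI derived from sequencing read proportions per bin multiplied by bin number.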

Variant	protein stability index
CNALENIRKEMKLLEQAGSLKGSL	2.87
MNALENIRKEMKLLEQAGSLKGSL	3.11
NNALENIRKEMKLLEQAGSLKGSL	3.83
GNALENIRKEMKLLEQAGSLKGSL	3.82
ENALENIRKEMKLLEQAGSLKGSL	3.65
DNALENIRKEMKLLEQAGSLKGSL	3.7
KNALENIRKEMKLLEQAGSLKGSL	3.77
WNALENIRKEMKLLEQAGSLKGSL	3.34
YNALENIRKEMKLLEQAGSLKGSL	3.04
LNALENIRKEMKLLEQAGSLKGSL	3.21
SNALENIRKEMKLLEQAGSLKGSL	3.48
INALENIRKEMKLLEQAGSLKGSL	2.69
ANALENIRKEMKLLEQAGSLKGSL	2.86
VNALENIRKEMKLLEQAGSLKGSL	3.53
HNALENIRKEMKLLEQAGSLKGSL	3.47
QNALENIRKEMKLLEQAGSLKGSL	3.65
FNALENIRKEMKLLEQAGSLKGSL	2.46
TNALENIRKEMKLLEQAGSLKGSL	3.87
PNALENIRKEMKLLEQAGSLKGSL	3.37
RNILENIRKEMKLLEQAGSLKGSL	2.31
RNELENIRKEMKLLEQAGSLKGSL	2.94
RNLLENIRKEMKLLEQAGSLKGSL	2.64
RNKLENIRKEMKLLEQAGSLKGSL	3.48
RNNLENIRKEMKLLEQAGSLKGSL	3.75

Variant	protein stability index
RNDLENIRKEMKLLEQAGSLKGSL	3.75
RNWLENIRKEMKLLEQAGSLKGSL	2.57
RNTLENIRKEMKLLEQAGSLKGSL	4.32
RNPLENIRKEMKLLEQAGSLKGSL	4.1
RNYLENIRKEMKLLEQAGSLKGSL	2.56
RNQLENIRKEMKLLEQAGSLKGSL	3.9
RNMLENIRKEMKLLEQAGSLKGSL	3.75
RNSLENIRKEMKLLEQAGSLKGSL	4.31
RNFLENIRKEMKLLEQAGSLKGSL	2.6
RNRLENIRKEMKLLEQAGSLKGSL	3.98
RNVLENIRKEMKLLEQAGSLKGSL	2.83
RNGLENIRKEMKLLEQAGSLKGSL	3.34
RNCLENIRKEMKLLEQAGSLKGSL	2.45
RNALESIRKEMKLLEQAGSLKGSL	3.72
RNALEIIRKEMKLLEQAGSLKGSL	2.45
RNALEKIRKEMKLLEQAGSLKGSL	3.06
RNALEFIRKEMKLLEQAGSLKGSL	1.68
RNALETIRKEMKLLEQAGSLKGSL	2.53
RNALEYIRKEMKLLEQAGSLKGSL	2.53
RNALEAIRKEMKLLEQAGSLKGSL	3.66
RNALEHIRKEMKLLEQAGSLKGSL	3.38
RNALEPIRKEMKLLEQAGSLKGSL	3.4
RNALEDIRKEMKLLEQAGSLKGSL	3.76
RNALEEIRKEMKLLEQAGSLKGSL	3.2

Variant	protein stability index
RNALECIRKEMKLLEQAGSLKGSL	2.33
RNALEQIRKEMKLLEQAGSLKGSL	3.03
RNALEVIRKEMKLLEQAGSLKGSL	3.03
RNALEGIRKEMKLLEQAGSLKGSL	3.79
RNALEWIRKEMKLLEQAGSLKGSL	2.23
RNALEMIRKEMKLLEQAGSLKGSL	2.98
RNALELIRKEMKLLEQAGSLKGSL	2.17
RNALENCRKEMKLLEQAGSLKGSL	2.3
RNALENWRKEMKLLEQAGSLKGSL	3.15
RNALENKRKEMKLLEQAGSLKGSL	5.08
RNALENVRKEMKLLEQAGSLKGSL	3.53
RNALENFRKEMKLLEQAGSLKGSL	2.37
RNALENSRKEMKLLEQAGSLKGSL	3.69
RNALENTRKEMKLLEQAGSLKGSL	3.9
RNALENARKEMKLLEQAGSLKGSL	4.35
RNALENYRKEMKLLEQAGSLKGSL	3.67
RNALENERKEMKLLEQAGSLKGSL	4.02
RNALENLRKEMKLLEQAGSLKGSL	2.48
RNALENDRKEMKLLEQAGSLKGSL	4.75
RNALENNRKEMKLLEQAGSLKGSL	4.37
RNALENMRKEMKLLEQAGSLKGSL	3.29
RNALENPRKEMKLLEQAGSLKGSL	4.22
RNALENHRKEMKLLEQAGSLKGSL	3.74
RNALENIRKYMKLLEQAGSLKGSL	1.08

Variant	protein stability index
RNALENIRKKMKLLEQAGSLKGSL	2.31
RNALENIRKRMKLLEQAGSLKGSL	1.87
RNALENIRKWMKLLEQAGSLKGSL	2.89
RNALENIRKSMKLLEQAGSLKGSL	2.33
RNALENIRKLMKLLEQAGSLKGSL	2.44
RNALENIRKHMKLLEQAGSLKGSL	2.68
RNALENIRKTMKLLEQAGSLKGSL	2.39
RNALENIRKNMKLLEQAGSLKGSL	2.89
RNALENIRKVMKLLEQAGSLKGSL	2.63
RNALENIRKQMKLLEQAGSLKGSL	2.59
RNALENIRKPMKLLEQAGSLKGSL	3.06
RNALENIRKDMKLLEQAGSLKGSL	3.33
RNALENIRKCMKLLEQAGSLKGSL	1.83
RNALENIRKGMKLLEQAGSLKGSL	2.87
RNALENIRKAMKLLEQAGSLKGSL	2.36
RNALENIRKIMKLLEQAGSLKGSL	1.92
RNALENIRKMMKLLEQAGSLKGSL	1.23
RNALENIRKFMKLLEQAGSLKGSL	1.61
RNALENIMKEMKLLEQAGSLKGSL	2.92
RNALENIYKEMKLLEQAGSLKGSL	2.45
RNALENICKEMKLLEQAGSLKGSL	2.84
RNALENIDKEMKLLEQAGSLKGSL	4.49
RNALENIAKEMKLLEQAGSLKGSL	3.72
RNALENISKEMKLLEQAGSLKGSL	3.87

Variant	protein stability index
RNALENIPKEMKLLEQAGSLKGSL	4.29
RNALENINKEMKLLEQAGSLKGSL	4.19
RNALENIGKEMKLLEQAGSLKGSL	3.77
RNALENILKEMKLLEQAGSLKGSL	1.65
RNALENITKEMKLLEQAGSLKGSL	4.19
RNALENIVKEMKLLEQAGSLKGSL	3.25
RNALENIHKEMKLLEQAGSLKGSL	4.05
RNALENIWKEMKLLEQAGSLKGSL	2.3
RNALENIEKEMKLLEQAGSLKGSL	2.58
RNALENIIKEMKLLEQAGSLKGSL	1.84
RNALENIQKEMKLLEQAGSLKGSL	3.92
RNALENIKKEMKLLEQAGSLKGSL	3.04
RNALENIFKEMKLLEQAGSLKGSL	2.07
RNALENIRQEMKLLEQAGSLKGSL	3.29
RNALENIRLEMKLLEQAGSLKGSL	1.94
RNALENIRGEMKLLEQAGSLKGSL	3.61
RNALENIRVEMKLLEQAGSLKGSL	3.78
RNALENIREEMKLLEQAGSLKGSL	3.83
RNALENIRMEMKLLEQAGSLKGSL	2.32
RNALENIRSEMKLLEQAGSLKGSL	3.61
RNALENIRYEMKLLEQAGSLKGSL	2.78
RNALENIRCEMKLLEQAGSLKGSL	2.29
RNALENIRFEMKLLEQAGSLKGSL	1.95
RNALENIRWEMKLLEQAGSLKGSL	1.8

Variant	protein stability index
RNALENIRDEMKLLEQAGSLKGSL	3.57
RNALENIRREMKLLEQAGSLKGSL	3.31
RNALENIRHEMKLLEQAGSLKGSL	2.9
RNALENIRNEMKLLEQAGSLKGSL	3.12
RNALENIRTEMKLLEQAGSLKGSL	3.43
RNALENIRPEMKLLEQAGSLKGSL	3.58
RNALENIRIEMKLLEQAGSLKGSL	1.48
RFALENIRKEMKLLEQAGSLKGSL	2.87
RHALENIRKEMKLLEQAGSLKGSL	3.49
RDALENIRKEMKLLEQAGSLKGSL	3.52
RLALENIRKEMKLLEQAGSLKGSL	2.88
RRALENIRKEMKLLEQAGSLKGSL	3.49
RSALENIRKEMKLLEQAGSLKGSL	2.85
RIALENIRKEMKLLEQAGSLKGSL	2.69
RPALENIRKEMKLLEQAGSLKGSL	4.16
RWALENIRKEMKLLEQAGSLKGSL	2.34
REALENIRKEMKLLEQAGSLKGSL	3.65
RQALENIRKEMKLLEQAGSLKGSL	3.39
RAALENIRKEMKLLEQAGSLKGSL	3.1
RKALENIRKEMKLLEQAGSLKGSL	2.83
RTALENIRKEMKLLEQAGSLKGSL	2.92
RCALENIRKEMKLLEQAGSLKGSL	2.72
RGALENIRKEMKLLEQAGSLKGSL	3.57
RYALENIRKEMKLLEQAGSLKGSL	2.48

Variant	protein stability index
RMALENIRKEMKLLEQAGSLKGSL	3.05
RNALPNIRKEMKLLEQAGSLKGSL	3.7
RNALGNIRKEMKLLEQAGSLKGSL	3.21
RNALMNIRKEMKLLEQAGSLKGSL	3
RNALRNIRKEMKLLEQAGSLKGSL	3.06
RNALSNIRKEMKLLEQAGSLKGSL	2.78
RNALVNIRKEMKLLEQAGSLKGSL	2.82
RNALCNIRKEMKLLEQAGSLKGSL	2.98
RNALNNIRKEMKLLEQAGSLKGSL	2.46
RNALHNIRKEMKLLEQAGSLKGSL	2.88
RNALQNIRKEMKLLEQAGSLKGSL	3.34
RNALDNIRKEMKLLEQAGSLKGSL	3.85
RNALYNIRKEMKLLEQAGSLKGSL	1.97
RNALANIRKEMKLLEQAGSLKGSL	2.68
RNALWNIRKEMKLLEQAGSLKGSL	2.69
RNALFNIRKEMKLLEQAGSLKGSL	2.5
RNALKNIRKEMKLLEQAGSLKGSL	2.7
RNALLNIRKEMKLLEQAGSLKGSL	2.55
RNALINIRKEMKLLEQAGSLKGSL	3.57
RNALENIRKEAKLLEQAGSLKGSL	3.4
RNALENIRKEIKLLEQAGSLKGSL	3.24
RNALENIRKECKLLEQAGSLKGSL	3.37
RNALENIRKEHKLLEQAGSLKGSL	4.45
RNALENIRKEDKLLEQAGSLKGSL	4.34

Variant	protein stability index
RNALENIRKEFKLLEQAGSLKGSL	3.13
RNALENIRKEKKLLEQAGSLKGSL	2.79
RNALENIRKEGKLLEQAGSLKGSL	4
RNALENIRKEEKLLEQAGSLKGSL	4.45
RNAKENIRKEMKLLEQAGSLKGSL	3.67
RNAAENIRKEMKLLEQAGSLKGSL	3.93
RNADENIRKEMKLLEQAGSLKGSL	5
RNAQENIRKEMKLLEQAGSLKGSL	4.75
RNAIENIRKEMKLLEQAGSLKGSL	3.21
RNAWENIRKEMKLLEQAGSLKGSL	3.16
RNAFENIRKEMKLLEQAGSLKGSL	2.92
RNAMENIRKEMKLLEQAGSLKGSL	3.37
RNANENIRKEMKLLEQAGSLKGSL	4.39
RNACENIRKEMKLLEQAGSLKGSL	4.05
RNASENIRKEMKLLEQAGSLKGSL	4.36
RNAGENIRKEMKLLEQAGSLKGSL	3.14
RNATENIRKEMKLLEQAGSLKGSL	4.37
RNAEENIRKEMKLLEQAGSLKGSL	4.65
RNAHENIRKEMKLLEQAGSLKGSL	4.15
RNAVENIRKEMKLLEQAGSLKGSL	3.65
